Experiments:
[1] = target: T1, human αvβ1 integrin on CHOK1 stable cells (human, UniProt P06756 31-1048; P05556 21-798); assay: cell-based or functional assay
[2] = target: T2, human αvβ6 integrin on CHOK1 stable cells (human, UniProt P06756 31-1048; P18564 22-788); assay: cell-based or functional assay
[3] = target: mouse αvβ1 integrin on CHOK1 stable cells (mouse, UniProt P43406 31-1044; P09055 21-798); assay: cell-based or functional assay
[4] = target: mouse αvβ6 integrin on CHOK1 stable cells (mouse, UniProt P43406 31-1044; Q9Z0T9 22-787); assay: cell-based or functional assay
[5] = target: human αvβ8 integrin on CHOK1 stable cells (human, UniProt P06756 31-1048; P26012 43-769); assay: cell-based or functional assay
[6] = target: mouse αvβ3 integrin on CHOK1 stable cells (mouse, UniProt P43406 31-1044; O54890 26-787); assay: cell-based or functional assay
[7] = target: mouse αvβ5 integrin on CHOK1 stable cells (mouse, UniProt P43406 31-1044; O70309 24-798); assay: cell-based or functional assay
[8] = target: mouse αvβ8 integrin on CHOK1 stable cells (mouse, UniProt P43406 31-1044; Q0VBD0 22-767); assay: cell-based or functional assay
[9] = target: T3, recombinant human αvβ6 integrin extracellular domains (human, UniProt P06756 1-992; P18564 1-709, Biotinylated on the Avitag (tag not in the letters); interchain disulfide between the coiled-coils (not in the letters).); assay: AlphaLISA blocking of human LAP binding
T3 construct: Soluble heterodimer co-expressed in Expi293 cells; also called hαvβ6

[10] = target: T4, recombinant human αvβ8 integrin extracellular domains (human, UniProt P06756 1-992; P26012 1-684, Biotinylated on the Avitag (tag not in the letters); interchain disulfide between the coiled-coils (not in the letters).); assay: AlphaLISA blocking of human LAP binding
T4 construct: Soluble heterodimer co-expressed in Expi293 cells; also called hαvβ8

[11] = target: T5, recombinant mouse αvβ1 integrin extracellular domains (mouse, UniProt P43406 1-988; P09055 1-728, Biotinylated on the Avitag (tag not in the letters); interchain disulfide between the coiled-coils (not in the letters).); assay: AlphaLISA blocking of mouse fibronectin binding
T5 construct: Soluble heterodimer co-expressed in Expi293 cells; also called mαvβ1
T5 sequence (P43406 31-988 limits assumed, form in doubt, chain 1 of 2): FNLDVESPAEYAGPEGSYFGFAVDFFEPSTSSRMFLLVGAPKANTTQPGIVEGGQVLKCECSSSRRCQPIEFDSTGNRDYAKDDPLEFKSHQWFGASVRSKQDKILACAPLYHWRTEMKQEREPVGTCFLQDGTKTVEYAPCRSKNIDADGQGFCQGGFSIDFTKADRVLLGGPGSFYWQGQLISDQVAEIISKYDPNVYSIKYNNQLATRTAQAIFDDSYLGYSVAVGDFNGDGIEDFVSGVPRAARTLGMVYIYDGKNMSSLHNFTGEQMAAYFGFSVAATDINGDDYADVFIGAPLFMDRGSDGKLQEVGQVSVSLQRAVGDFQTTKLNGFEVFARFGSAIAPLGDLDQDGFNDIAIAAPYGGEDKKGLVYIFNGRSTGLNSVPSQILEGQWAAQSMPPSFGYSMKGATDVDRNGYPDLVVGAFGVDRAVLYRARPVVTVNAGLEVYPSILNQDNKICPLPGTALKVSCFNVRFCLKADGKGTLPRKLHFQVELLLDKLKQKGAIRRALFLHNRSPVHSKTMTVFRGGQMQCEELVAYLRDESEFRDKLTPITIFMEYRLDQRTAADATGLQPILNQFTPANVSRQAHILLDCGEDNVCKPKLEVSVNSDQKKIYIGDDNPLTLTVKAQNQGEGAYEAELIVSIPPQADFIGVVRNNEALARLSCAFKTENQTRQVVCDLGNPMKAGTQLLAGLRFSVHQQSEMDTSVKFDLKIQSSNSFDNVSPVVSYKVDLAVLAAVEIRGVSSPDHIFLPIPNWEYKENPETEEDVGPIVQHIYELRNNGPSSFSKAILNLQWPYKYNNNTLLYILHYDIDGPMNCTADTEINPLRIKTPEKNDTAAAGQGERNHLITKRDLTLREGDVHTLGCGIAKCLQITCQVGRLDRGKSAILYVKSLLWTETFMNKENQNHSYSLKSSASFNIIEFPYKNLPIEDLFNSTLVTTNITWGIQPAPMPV
T5 sequence (P09055 21-728 limits assumed, form in doubt, chain 2 of 2): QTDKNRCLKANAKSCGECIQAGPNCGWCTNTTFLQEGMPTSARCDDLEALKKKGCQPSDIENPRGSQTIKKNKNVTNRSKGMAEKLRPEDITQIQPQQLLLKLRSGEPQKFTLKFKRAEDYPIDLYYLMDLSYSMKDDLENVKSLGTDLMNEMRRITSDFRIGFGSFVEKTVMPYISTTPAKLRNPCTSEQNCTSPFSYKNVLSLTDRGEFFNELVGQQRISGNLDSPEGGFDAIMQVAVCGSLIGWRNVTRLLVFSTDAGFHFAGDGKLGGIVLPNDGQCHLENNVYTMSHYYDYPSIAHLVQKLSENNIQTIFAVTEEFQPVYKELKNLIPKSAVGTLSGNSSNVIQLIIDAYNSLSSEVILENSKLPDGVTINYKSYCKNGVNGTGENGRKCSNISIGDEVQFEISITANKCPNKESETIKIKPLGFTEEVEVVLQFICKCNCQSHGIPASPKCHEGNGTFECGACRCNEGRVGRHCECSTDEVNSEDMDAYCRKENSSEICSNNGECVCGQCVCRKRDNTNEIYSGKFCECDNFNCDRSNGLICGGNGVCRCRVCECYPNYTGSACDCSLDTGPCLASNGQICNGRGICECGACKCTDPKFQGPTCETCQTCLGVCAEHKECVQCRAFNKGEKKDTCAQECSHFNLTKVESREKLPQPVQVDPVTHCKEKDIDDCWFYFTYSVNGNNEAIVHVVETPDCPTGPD
Protocol: (§1) Briefly, the testing antibody (8 μL) was added as a 4×(of Final testing concentration) solution in the HEPES buffer described previously into a 384w AlphaPlate™ (Perkin Elmer #6005350). Then the integrin and ligand were added sequentially as 8×(4 μL each). Plates were sealed and incubated at room temperature for two hours. Then 4×acceptor bead solution ([…]) was added, and the plates were resealed and incubated at room temperature (RT) for one hour. Finally, 4×([…]) donor beads solution was added in a darkened room and incubated for 45 minutes at room temperature. Plates were read on the Envision (Perkin Elmer) in AlphaScreen™ mode within three hours of donor bead addition.

[12] = target: T6, recombinant mouse αvβ3 integrin extracellular domains (mouse, UniProt P43406 1-988; O54890 1-717, Biotinylated on the Avitag (tag not in the letters); interchain disulfide between the coiled-coils (not in the letters).); assay: AlphaLISA blocking of mouse vitronectin binding
T6 construct: Soluble heterodimer co-expressed in Expi293 cells; also called mαvβ3
T6 sequence (P43406 31-988 limits assumed, form in doubt, chain 1 of 2): as the sequence (P43406 31-988 limits assumed, form in doubt, chain 1 of 2) above
T6 sequence (O54890 26-717 limits assumed, form in doubt, chain 2 of 2): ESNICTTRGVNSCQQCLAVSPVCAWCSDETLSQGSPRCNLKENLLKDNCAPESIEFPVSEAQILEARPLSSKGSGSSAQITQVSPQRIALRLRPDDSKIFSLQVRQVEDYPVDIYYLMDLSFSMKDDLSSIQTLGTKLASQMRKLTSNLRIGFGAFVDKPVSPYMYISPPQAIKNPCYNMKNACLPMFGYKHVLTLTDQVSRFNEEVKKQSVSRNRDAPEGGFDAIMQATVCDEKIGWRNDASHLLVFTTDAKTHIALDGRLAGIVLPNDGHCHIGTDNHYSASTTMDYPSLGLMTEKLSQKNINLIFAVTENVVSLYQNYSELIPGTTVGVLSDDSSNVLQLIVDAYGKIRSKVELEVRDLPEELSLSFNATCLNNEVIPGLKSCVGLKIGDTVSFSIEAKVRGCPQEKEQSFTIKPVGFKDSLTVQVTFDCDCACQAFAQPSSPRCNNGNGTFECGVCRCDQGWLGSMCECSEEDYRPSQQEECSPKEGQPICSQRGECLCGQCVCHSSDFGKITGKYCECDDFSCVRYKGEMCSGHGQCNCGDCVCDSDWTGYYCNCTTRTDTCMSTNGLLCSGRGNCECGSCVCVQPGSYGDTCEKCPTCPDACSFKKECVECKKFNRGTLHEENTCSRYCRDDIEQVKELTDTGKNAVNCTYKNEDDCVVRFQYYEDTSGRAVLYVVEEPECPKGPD
Protocol: as §1

[13] = target: T1, human αvβ1 integrin on CHOK1 stable …; assay: cell-based ELISA (CELISA), CHOK1 cells expressing the integrin
Protocol: (§2) Integrin cell-based ELISA (CELISA) assay. Cell binding EC₅₀ data for antibodies were obtained for CHOK1 parental cells and CHOK1 cells expressing human or mouse αvβ1, αvβ6, and αvβ1 integrins by cell-based ELISA. Three days prior to the assay cells were seeded at 10,000 cells per well in 100 μL/well of media in Falcon 96-well Flat-Bottom Tissue Culture Plates (REF 353916), resulting in an even cell monolayer in each well on the day of the assay. On the day of the assay, media was removed from the cells and a fivefold titration of primary antibodies was added at concentrations ranging from 0 to 200 nM in TBSF+MnCl₂ buffer (25 mM Tris, 0.15 M NaCl, 0.1% BSA, 0.5 mM MnCl₂, pH 7.5). Cells incubated with primary antibody solution for 1 hour at room temperature. […] After 30 minutes of incubation at room temperature, secondary antibody was removed, and cells were washed twice with 150 μL/well of 1×DPBS+Tween 20. Then 50 μL/well of TMB substrate (1-Step Ultra TMB-ELISA, Thermo Scientific, #34028) was added, incubated with cells at room temperature, and 50 μL/well of TMB stop solution (Seracare, #KPL 50-85-05) was then added after five minutes. Absorbance was read on a TECAN plate reader at 450 nm, with a 620 nm reference wavelength.

[14] = target: T2, human αvβ6 integrin on CHOK1 stable …; assay: as above
Protocol: as §2

[15] = target: T7, human α5β1 integrin on CHOK1 stable cells (human, UniProt P08648 42-1049; P05556 21-798); assay: as above
T7 construct: whole, on cells; Stably expressed on CHOK1 cells; also called hα5β1; CHOK1-human α5β1
Protocol: as §2

[16] = target: T5, recombinant mouse αvβ1 integrin …; assay: ForteBio Octet Red (BLI); upper end tied to Ab-31 and mαvβ1 by Table 13
[17] = target: T8, recombinant mouse αvβ5 integrin extracellular domains (mouse, UniProt P43406 1-988; O70309 1-719, Biotinylated on the Avitag (tag not in the letters); interchain disulfide between the coiled-coils (not in the letters).); assay: AlphaLISA blocking of mouse vitronectin binding
T8 construct: Soluble heterodimer co-expressed in Expi293 cells; also called mαvβ5
T8 sequence (P43406 31-988 limits assumed, form in doubt, chain 1 of 2): as the sequence (P43406 31-988 limits assumed, form in doubt, chain 1 of 2) above
T8 sequence (O70309 24-719 limits assumed, form in doubt, chain 2 of 2): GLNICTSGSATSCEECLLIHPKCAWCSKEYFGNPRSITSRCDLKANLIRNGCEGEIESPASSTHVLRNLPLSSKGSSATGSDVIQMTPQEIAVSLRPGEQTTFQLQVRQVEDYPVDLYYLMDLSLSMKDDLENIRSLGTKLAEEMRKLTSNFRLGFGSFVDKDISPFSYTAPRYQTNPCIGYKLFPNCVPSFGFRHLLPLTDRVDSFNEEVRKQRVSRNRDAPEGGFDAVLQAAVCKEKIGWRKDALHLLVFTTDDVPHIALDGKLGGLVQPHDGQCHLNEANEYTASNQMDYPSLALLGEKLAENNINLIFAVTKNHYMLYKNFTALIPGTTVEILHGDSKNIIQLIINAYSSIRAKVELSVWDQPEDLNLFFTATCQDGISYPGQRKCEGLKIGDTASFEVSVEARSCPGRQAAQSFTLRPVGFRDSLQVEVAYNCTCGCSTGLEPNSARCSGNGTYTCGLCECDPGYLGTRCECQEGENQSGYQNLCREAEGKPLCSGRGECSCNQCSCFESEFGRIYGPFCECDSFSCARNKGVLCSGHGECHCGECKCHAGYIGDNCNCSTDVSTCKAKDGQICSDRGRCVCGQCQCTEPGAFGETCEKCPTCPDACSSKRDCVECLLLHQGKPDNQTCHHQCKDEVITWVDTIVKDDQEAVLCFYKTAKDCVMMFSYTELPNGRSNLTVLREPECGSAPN
Protocol: as §1

Chain of mouse αvβ1 integrin on CHOK1 stable cells (P43406 31-1044, chain 1 of 2): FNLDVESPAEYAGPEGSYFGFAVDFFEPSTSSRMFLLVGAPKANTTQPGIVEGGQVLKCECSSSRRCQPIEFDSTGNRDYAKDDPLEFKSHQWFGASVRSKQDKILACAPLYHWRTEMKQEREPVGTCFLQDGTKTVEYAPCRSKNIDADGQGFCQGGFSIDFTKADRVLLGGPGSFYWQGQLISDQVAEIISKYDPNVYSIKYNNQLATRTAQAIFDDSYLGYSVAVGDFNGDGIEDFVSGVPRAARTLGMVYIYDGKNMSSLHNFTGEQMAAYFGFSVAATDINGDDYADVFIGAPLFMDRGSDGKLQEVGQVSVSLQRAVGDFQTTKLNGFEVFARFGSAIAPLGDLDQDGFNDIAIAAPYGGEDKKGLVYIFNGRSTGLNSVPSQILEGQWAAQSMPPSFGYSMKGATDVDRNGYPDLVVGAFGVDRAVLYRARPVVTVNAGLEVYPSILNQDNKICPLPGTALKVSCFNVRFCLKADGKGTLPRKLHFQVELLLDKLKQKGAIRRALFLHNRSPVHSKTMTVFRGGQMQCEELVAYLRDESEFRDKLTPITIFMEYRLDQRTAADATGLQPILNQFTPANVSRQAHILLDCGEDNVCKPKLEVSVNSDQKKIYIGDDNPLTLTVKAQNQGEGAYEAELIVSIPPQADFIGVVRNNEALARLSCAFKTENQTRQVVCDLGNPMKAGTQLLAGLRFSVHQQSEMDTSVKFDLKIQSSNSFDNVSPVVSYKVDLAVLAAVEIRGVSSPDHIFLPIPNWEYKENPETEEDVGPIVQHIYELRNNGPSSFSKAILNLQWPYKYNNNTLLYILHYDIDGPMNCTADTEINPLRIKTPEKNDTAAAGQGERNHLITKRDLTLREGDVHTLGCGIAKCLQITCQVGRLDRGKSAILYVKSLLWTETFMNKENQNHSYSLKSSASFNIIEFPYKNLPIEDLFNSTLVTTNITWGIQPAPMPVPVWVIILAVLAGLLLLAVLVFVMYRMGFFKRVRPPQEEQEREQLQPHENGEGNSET
Chain of mouse αvβ1 integrin on CHOK1 stable cells (P09055 21-798, chain 2 of 2): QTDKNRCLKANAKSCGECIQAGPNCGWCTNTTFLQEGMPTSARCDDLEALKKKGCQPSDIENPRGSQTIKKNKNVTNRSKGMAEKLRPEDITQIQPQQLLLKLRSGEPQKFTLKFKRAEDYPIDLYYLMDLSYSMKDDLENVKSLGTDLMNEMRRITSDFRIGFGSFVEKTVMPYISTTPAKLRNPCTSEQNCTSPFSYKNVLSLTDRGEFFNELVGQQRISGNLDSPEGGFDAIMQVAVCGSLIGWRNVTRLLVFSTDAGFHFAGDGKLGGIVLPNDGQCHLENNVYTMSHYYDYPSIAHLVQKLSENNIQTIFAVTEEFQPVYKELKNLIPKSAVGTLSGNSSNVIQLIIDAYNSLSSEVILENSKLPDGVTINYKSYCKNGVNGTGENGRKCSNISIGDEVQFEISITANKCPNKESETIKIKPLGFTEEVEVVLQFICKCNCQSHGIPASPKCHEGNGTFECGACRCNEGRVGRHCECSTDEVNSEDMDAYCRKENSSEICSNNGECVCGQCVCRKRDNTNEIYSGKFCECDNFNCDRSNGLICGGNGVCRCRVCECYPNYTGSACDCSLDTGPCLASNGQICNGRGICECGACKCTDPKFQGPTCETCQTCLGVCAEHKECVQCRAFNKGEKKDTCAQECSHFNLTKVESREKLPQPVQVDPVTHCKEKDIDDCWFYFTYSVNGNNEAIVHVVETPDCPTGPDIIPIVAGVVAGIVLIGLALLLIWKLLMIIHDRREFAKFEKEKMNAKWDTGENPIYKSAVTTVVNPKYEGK

Binder	IC50 of latent TGFβ activation (PAI-1 luciferase, TMLC and CHOK1-integrin co-culture) [1] [nM]	IC50 of latent TGFβ activation (PAI-1 luciferase, TMLC and CHOK1-integrin co-culture) [2] [nM]	IC50 of inhibition of adhesion of CHOK1-α5KO-mαvβ1 cells to fibronectin matrix [3] [nM]	IC50 of latent TGFβ activation (PAI-1 luciferase, TMLC and CHOK1-integrin co-culture) [3] [nM]	IC50 of latent TGFβ activation (PAI-1 luciferase, TMLC and CHOK1-integrin co-culture) [4] [nM]	IC50 of latent TGFβ activation (PAI-1 luciferase, TMLC and CHOK1-integrin co-culture) [5] [nM]	IC50 of inhibition of adhesion of CHOK1-mαvβ3 cells to vitronectin matrix [6] [nM]	IC50 of inhibition of adhesion of CHOK1-mαvβ5 cells to vitronectin matrix [7] [nM]	IC50 of latent TGFβ activation (PAI-1 luciferase, TMLC and CHOK1-integrin co-culture) [8] [nM]	IC50 [9] [nM]	IC50 [10] [nM]	IC50 [11] [nM]	IC50 [12] [nM]	EC50 [13] [nM]	EC50 [14] [nM]	EC50 [15] [nM]	Kd [16] [nM]	IC50 [17] [nM]
Ab-31 (antibody, V domains shown) VH: EVQLQESGPGLVKPSETLSLTCAVSGYSISSGYYWGWIRQPPGKGLEWIGSIYHSGNTYYNPSLKSRVTISVDTSKNQFSLKLSSVTAADTAVYYCARVPRYSRGDAYYYYGMDVWGQGTTVTVSS VL: DIQMTQSPSTLSASVGDRVTITCRASQSIGSWLAWYQQKPGKAPKLLIYKASSLESGVPSRFSGSGSGTEFTLTISSLQPDDFATYYCQQSGPYPWTFGGGTKVEIK	6.1	19.1	1.5	7.5	3.1	3.9	1	5.6	13.5	30.9	47.8	6.6	3.2	0.32	0.483	1.22	2 to 48	
Ab-29 (antibody, V domains shown) VH: ELQLQESGPGLVKPSETLSLTCTVSGGSISSNSYYWGWIRQPPGKGLEWIGSIYYSGSTYYNPSLKSRVTISVDTSKNQFSLKLSSVTAADTAVYYCARVRRVAGRGDSYYYYYGMDVWGQGTTVTVSS VL: DIQMTQSPSSVSASVGDRVTITCRASQGISRWLAWYQQKPGKAPKLLIYAASSLQSGVPSRFSGSGSGTDFTLTISSLQPEDFATYYCQQAISHPWTFGGGTKVEIK										96	200	3.4	3.4	0.198	0.861	0.166		17.7

Now those with a lower IC50 [9], led by results:

IC50 of latent TGFβ activation (PAI-1 luciferase, TMLC and CHOK1-integrin co-culture) [1] [nM]	IC50 of latent TGFβ activation (PAI-1 luciferase, TMLC and CHOK1-integrin co-culture) [2] [nM]	IC50 of inhibition of adhesion of CHOK1-α5KO-mαvβ1 cells to fibronectin matrix [3] [nM]	IC50 of latent TGFβ activation (PAI-1 luciferase, TMLC and CHOK1-integrin co-culture) [3] [nM]	IC50 of latent TGFβ activation (PAI-1 luciferase, TMLC and CHOK1-integrin co-culture) [4] [nM]	IC50 of latent TGFβ activation (PAI-1 luciferase, TMLC and CHOK1-integrin co-culture) [5] [nM]	IC50 of inhibition of adhesion of CHOK1-mαvβ3 cells to vitronectin matrix [6] [nM]	IC50 of inhibition of adhesion of CHOK1-mαvβ5 cells to vitronectin matrix [7] [nM]	IC50 of latent TGFβ activation (PAI-1 luciferase, TMLC and CHOK1-integrin co-culture) [8] [nM]	IC50 [9] [nM]	IC50 [10] [nM]	IC50 [11] [nM]	IC50 [12] [nM]	EC50 [13] [nM]	EC50 [14] [nM]	EC50 [15] [nM]	Kd [16] [nM]	IC50 [17] [nM]	Binder
									25.4	19.7	6.8	4.2	0.23	0.323	0.495			Ab-30 (antibody, V domains shown) VH: EVQLQESGPGLVKPSETLSLTCAVSGYSISSGYYWGWIRQPPGKGLEWIGSIYHSGNTYYNPSLKSRVTISVDTSKNQFSLKLSSVTAADTAVYYCARVPRYSRGDAYYYYGMDVWGQGTTVTVSS VL: DIQMTQSPSTLSASVGDRVTITCRASQSISSWLAWYQQKPGKAPKLLIYKASSLESGVPSRFSGSGSGTEFTLTISSLQPDDFATYYCQQVKIYPPYTFGGGTKVEIK
									16.4	48	6.7	4.3	0.335	0.438	0.597			Ab-32 (antibody, V domains shown) VH: EVQLQESGPGLVKPSETLSLTCAVSGYSISSGYYWGWIRQPPGKGLEWIGSIYHSGNTYYNPSLKSRVTISVDTSKNQFSLKLSSVTAADTAVYYCARVPRYSRGDAYYYYGMDVWGQGTTVTVSS VL: EIVLTQSPGTLSLSPGERATLSCRASQSVRSSYLAWYQQKPGQAPRLLIYGASSRATGIPDRFSGSGSGTDFTLTISRLEPEDFAVYYCQQAGLVFTFGGGTKVEIK
									7.49	12.2	4.5	9.2	0.702	0.417			96.3	Ab-33 (antibody, V domains shown) VH: EVQLVQSGAEVKKPGSSVKVSCKASGGTFSNYAISWVRQAPGQGLEWMGGIIPIFGTANYAQKFQGRVTITADESTSTAYMELSSLRSEDTAVYYCARAPRSARGDMYYYYYGMDVWGQGTTVTVSS VL: DIQMTQSPSTLSASVGDRVTITCRASQSIGSWLAWYQQKPGKAPKLLIYKASSLESGVPSRFSGSGSGTEFTLTISSLQPDDFATYYCQQYGRYPWTFGGGTKVEIK
